This is an account of results in ChEMBL document CHEMBL2074354, “Chlorambucil-taurocholate is transported by bile acid carriers expressed in human hepatocellular carcinomas” (Gastroenterology, 1997).

Substrate in this data set: [H][C@]12CC[C@]3([H])[C@]([H])(C[C@H](O)[C@]4(C)C(C(C)CCC(=O)NCCS(=O)(=O)O)CC[C@@]34[H])[C@@]1(C)CC[C@H](OCCNC(=O)CCCc1ccc(N(CCCl)CCCl)cc1)C2
Nature of the data set: TP_TRANSPORTER: uptake in Xenopus laevis oocytes. Format: functional, cell-based, Oocyte.

B1: Hepatic sodium/bile acid cotransporter (Homo sapiens) (protein)
chain: MEAHNASAPFNFTLPPNFGKRPTDLALSVILVFMLFFIMLSLGCTMEFSKIKAHLWKPKGLAIALVAQYGIMPLTAFVLGKVFRLKNIEALAILVCGCSPGGNLSNVFSLAMKGDMNLSIVMTTCSTFCALGMMPLLLYIYSRGIYDGDLKDKVPYKGIVISLVLVLIPCTIGIVLKSKRPQYMRYVIKGGMIIILLCSVAVTVLSAINVGKSIMFAMTPLLIATSSLMPFIGFLLGYVLSALFCLNGRCRRTVSMETGCQNVQLCSTILNVAFPPEVIGPLFFFPLLYMIFQLGEGLLLIAIFWCYEKFKTPKDKTKMIYTAATTEETIPGALGNGTYKGEDCSPCTA
For orientation: Km means the concentration of substrate that gives half-maximal velocity. B1: the Km came to 11 µM.
